Measured values from patent US12012599B2, “Compositions and methods for modulating left-right differentiation factor (LEFTY) and bone morphogenic factor (BMP)” (CZ Biohub SF LLC, priority 2018, dated 2024).

Legend:
[1] = tested on: pSMAD2; experiment: Western-blot of pSMAD2 in Comma-D mammary epithelial cells; format: cell-based, mouse; conditions: Comma-D cells blocked with LEFTY1 200 ng/ml 1 hour, stimulated with BMP7 and Nodal 50 ng/ml 30 minutes
Protocol: (§1) FIGS. 4J-4L. LEFTY1 inhibits pSMAD2 and pSMAD5 in Comma-D mouse mammary epithelial cells. […] Comma-D cells were serum starved 16 hours and blocked with LEFTY1 (200 ng/ml) for 1 hour and stimulated with BMP7 (50 ng/ml) and Nodal (50 ng/ml) for 30 minutes in serum free media. Cells were harvested in 1×RIPA Buffer with 1× protease and phosphatase inhibitors on ice. Lysates were diluted in 4× sample buffer and boiled at 95° C. for 5 minutes and then run on a 10% SDS-page gradient gels at 100V for 1 hour. […] The membranes were incubated with either pSMAD2, pSMAD5, total SMAD2/3 or SMAD1/5/8 antibodies overnight. Incubation with secondary antibodies containing fluorophores at 1:20,000 dilution (IRDye 800CW conjugated goat anti-rabbit #926-32211, IRDye 680 conjugated goat anti-mouse antibodies #926-32220, LI-COR Biosciences, Lincoln, NE) enabled visualization on the Odyssey Infrared Imaging System from LI-COR Biosciences. […] Data are represented as median±S.D. Statistical analysis, one-way ANOVA with post-hoc Tukey multiple comparison, ****p<0.0001, ***p<0.001; unless stated analysis is non-significant with p>0.05.

[2] = tested on: pSMAD5; experiment: Western-blot of pSMAD5 in Comma-D mammary epithelial cells; format: cell-based, mouse; conditions: Comma-D cells blocked with LEFTY1 200 ng/ml 1 hour, stimulated with BMP7 and Nodal 50 ng/ml 30 minutes
Protocol: as §1

[3] = molecular target: T1, BMP7-BMPR2 interaction (Homo sapiens, UniProt Q13873); experiment: Proximity Ligation Assay of BMP7-BMPR2 interaction in MDA-MB-231; format: cell-based; conditions: 50 ng/mL BMP7 30 minutes, exogenous LEFTY 200 ng/mL
T1 construct: endogenous in cells; host or cells: MDA-MB-231
T1 sequence (Q13873 27-1038): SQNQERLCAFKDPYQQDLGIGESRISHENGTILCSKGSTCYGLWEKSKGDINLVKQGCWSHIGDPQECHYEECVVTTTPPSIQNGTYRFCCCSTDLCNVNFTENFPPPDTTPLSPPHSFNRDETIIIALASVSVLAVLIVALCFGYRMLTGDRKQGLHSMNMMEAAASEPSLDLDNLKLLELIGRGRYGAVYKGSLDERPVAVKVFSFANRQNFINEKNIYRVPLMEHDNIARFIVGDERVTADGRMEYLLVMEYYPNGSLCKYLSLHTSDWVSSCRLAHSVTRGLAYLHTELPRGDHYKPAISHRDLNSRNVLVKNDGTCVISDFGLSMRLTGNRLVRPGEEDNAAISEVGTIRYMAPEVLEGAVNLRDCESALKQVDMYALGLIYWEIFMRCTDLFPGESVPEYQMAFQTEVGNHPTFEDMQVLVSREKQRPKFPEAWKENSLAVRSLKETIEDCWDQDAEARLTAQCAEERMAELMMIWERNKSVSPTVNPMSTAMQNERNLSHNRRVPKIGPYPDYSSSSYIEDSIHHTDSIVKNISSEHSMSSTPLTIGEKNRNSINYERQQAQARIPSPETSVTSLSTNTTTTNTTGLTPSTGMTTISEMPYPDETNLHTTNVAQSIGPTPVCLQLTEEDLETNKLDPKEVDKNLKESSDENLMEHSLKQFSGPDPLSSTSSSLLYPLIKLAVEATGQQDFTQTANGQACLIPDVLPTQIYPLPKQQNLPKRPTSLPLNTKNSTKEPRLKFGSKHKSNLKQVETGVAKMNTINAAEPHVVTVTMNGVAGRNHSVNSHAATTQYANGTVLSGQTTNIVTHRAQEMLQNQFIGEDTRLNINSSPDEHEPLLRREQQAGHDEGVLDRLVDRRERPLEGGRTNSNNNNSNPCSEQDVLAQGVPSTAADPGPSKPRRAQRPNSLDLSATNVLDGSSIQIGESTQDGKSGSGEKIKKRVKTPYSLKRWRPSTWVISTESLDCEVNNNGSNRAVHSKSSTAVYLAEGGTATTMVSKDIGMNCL
Protocol: FIGS. 20 and 21 are data from an experiment in which the breast cancer cell line MDA-MB-231 was plated and serum starved for 24 hours. 50 ng/mL BMP7 was added for 30 minutes to activate pSMAD5, either in the absence or presence of exogenous LEFTY (200 ng/mL). LEFTY-BMPR2 interaction, BMP7-BMPR2 interaction (as visualized by Proximity Ligation Assay, red), pSMAD5 status (As visualized by Immunofluorescence, green) were monitored and captured.
For the PLA assay (DUOLink, OLink Biosciences, Sigma-Aldrich #DUO92102), cells were seeded and treated on 13 mm glass coverslips previously coated with Poly-L-Lysine (Millipore). The cells were fixed with ice cold 100% Methanol for 5 minutes at −20° C. and then rehydrated thrice in PBS for 5 min each. Coverslips were blocked for 30 min with PBS+3% BSA and then incubated with appropriate dilution of primary antibodies in PBS+1% BSA for 1 h in a moist environment at room temperature. Rabbit anti-LEFTY1 and Thermo mouse anti-BMPR2 were used to characterize the interaction between LEFTY and BMPR2 (Table S2). […]
Breast cancer cell line MDA-MB-231 was plated and serum starved for 24 hours. […] LEFTY-BMPR2 interaction, BMP7-BMPR2 interaction (as visualized by Proximity Ligation Assay, red), pSMAD5 status (As visualized by Immunofluorescence, green) were monitored and captured.

BMP7-BMPR2 interaction [3]: reduces BMP7-BMPR2 interactions
B1: LEFTY1: left-right determination factor 1, secreted TGF-β superfamily protein; generic LEFTY may mean LEFTY1 or LEFTY2 (protein, UniProt O75610 77-366, looked up)
Left-right determination …: RFSQSFREVAGRFLALEASTHLLVFGMEQRLPPNSELVQAVLRLFQEPVPKAALHRHGRLSPRSARARVTVEWLRVRDDGSNRTSLIDSRLVSVHESGWKAFDVTEAVNFWQQLSRPRQPLLLQVSVQREHLGPLASGAHKLVRFASQGAPAGLGEPQLELHTLDLGDYGAQGDCDPEAPMTEGTRCCRQEMYIDLQGMKWAENWVLEPPGFLAYECVGTCRQPPEALAFKWPFLGPRQCIASETDSLPMIVSIKEGGRTRPQVVSLPNMRVQKCSCASDGALVPRRLQP
pSMAD2 signal [1]: inhibited
pSMAD5 signal [2]: inhibited
